The values that follow come from paper PMC2788865.

Assay [1] deals with phospho-Thr^286-αCaMKII (mouse) (UniProt P11798). The assay can be described thus: fluorescence polarisation. (In general: Fluorescence polarisation rises when a labelled molecule tumbles more slowly, as on binding a larger partner.)
A further assay addresses calmodulin (CaM). The assay can be described thus: FL-CaM fluorescence polarisation. The following applies: reference: αCaMKII with Ca2+/FL-CaM, no ATP; sites T286.

Chain of αCaMKII (P11798 whole entry, looked up, change not shown): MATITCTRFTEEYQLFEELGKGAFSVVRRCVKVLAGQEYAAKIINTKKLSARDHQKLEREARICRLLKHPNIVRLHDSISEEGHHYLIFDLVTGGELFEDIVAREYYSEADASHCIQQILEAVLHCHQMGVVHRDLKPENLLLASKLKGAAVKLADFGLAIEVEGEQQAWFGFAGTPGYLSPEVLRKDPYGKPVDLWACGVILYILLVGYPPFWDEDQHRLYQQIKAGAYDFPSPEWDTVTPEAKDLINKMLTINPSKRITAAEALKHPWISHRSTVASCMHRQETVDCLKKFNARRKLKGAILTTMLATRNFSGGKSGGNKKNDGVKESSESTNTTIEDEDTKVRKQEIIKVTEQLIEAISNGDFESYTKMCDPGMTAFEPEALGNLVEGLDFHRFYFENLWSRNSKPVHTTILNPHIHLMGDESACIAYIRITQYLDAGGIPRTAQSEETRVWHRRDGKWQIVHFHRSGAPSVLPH
Chain of phospho-Thr^286-αCaMKII (mouse) (P11798 whole entry): as the sequence (P11798 whole entry, looked up, change not shown) above

As to “Lys^75-FL-calmodulin (FL-CaM) (from UniProt P0DP23 1-149) (natural protein)”, the rate constant of CaM dissociation (polarization, slow phase) after EGTA in assay [1] turned out to be 0.02 s⁻¹.

Regarding “αCaMKII (from UniProt P11798) αCaMKII with Ca2+/FL-CaM and ATP (autophosphorylated)”, the “other: fluorescence polarisation of FL-CaM” value with calmodulin (CaM) is “stronger; reference 0.33”.
